Measurements reported in the supplement of paper PMC5998384.

How the values were obtained:
[1] = system: HeLa Kyoto; assay: thermal stability score vs G1/S (z-score of summed log2 fold changes over temperatures); higher = more thermally stable than in G1/S
[2] = system: HeLa Kyoto; assay: solubility change mitosis vs G1/S (difference of NP-40 vs SDS log2 ratios) (log2 ratio difference); higher = more soluble in mitosis
[3] = system: HeLa Kyoto; assay: solubility in G1/S (NP-40 vs SDS abundance) (log2 ratio); higher = more soluble; conditions: cell cycle stage: G1/S
[4] = system: HeLa Kyoto; assay: melting temperature (median over replicates), in situ; higher = more thermally stable
[5] = cell cycle stage: early G1 (4.5 h after nocodazole release)
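Throughout, for melting temperature (median over replicates), in situ: HeLa Kyoto cells synchronized by double thymidine or nocodazole block, proteins quantified by TMT10plex mass spectrometry, three independent biological replicates.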
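Throughout, for solubility change mitosis vs G1/S (difference of NP-40 vs SDS log2 ratios): synchronized HeLa Kyoto cells (double thymidine block for G1/S, nocodazole release for mitosis), protein amounts in NP-40 versus SDS lysates quantified by mass spectrometry, three biological replicates.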
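Throughout, for solubility in G1/S (NP-40 vs SDS abundance): HeLa Kyoto cells arrested at G1/S by double thymidine block, proteins quantified by TMT10plex mass spectrometry in mild NP-40 versus SDS extracts, three biological replicates.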
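Throughout, for thermal stability score vs G1/S (z-score of summed log2 fold changes over temperatures): synchronized HeLa Kyoto cells, proteins quantified by TMT10plex mass spectrometry, three biological replicates, mitosis taken 0.5 h after nocodazole release, G1/S directly after double thymidine block.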

| Sequence | thermal stability score [1, 5] | thermal stability score ([1]; cell cycle stage: mitosis) | solubility change mitosis (log2) [2] | solubility in G1/S (log2) [3] | melting temperature ([4]; cell cycle stage: G1/S) [°C] | melting temperature ([4]; cell cycle stage: mitosis) [°C] |
| --- | --- | --- | --- | --- | --- | --- |
| MPAVASVPKELYLSSSLKDLNKKTEVKPEKISTKSYVHSALKIFKTAEECRLDRDEERAYVLYMKYVTVYNLIKKRPDFKQQQDYFHSILGPGNIKKAVEEAERLSESLKLRYEEAEVRKKLEEKDRQEEAQRLQQKRQETGREDGGTLAKGSLENVLDSKDKTQKSNGEKNEKCETKEKGAITAKELYTMMTDKNISLIIMDARRMQDYQDSCILHSLSVPEEAISPGVTASWIEAHLPDDSKDTWKKRGNVEYVVLLDWFSSAKDLQIGTTLRSLKDALFKWESKTVLRNEPLVLEGGYENWLLCYPQYTTNAKVTPPPRRQNEEVSISLDFTYPSLEESIPSKPAAQTPPASIEVDENIELISGQNERMGPLNISTPVEPVAASKSDVSPIIQPVPSIKNVPQIDRTKKPAVKLPEEHRIKSESTNHEQQSPQSGKVIPDRSTKPVVFSPTLMLTDEEKARIHAETALLMEKNKQEKELRERQQEEQKEKLRKEEQEQKAKKKQEAEENEITEKQQKAKEEMEKKESEQAKKEDKETSAKRGKEITGVKRQSKSEHETSDAKKSVEDRGKRCPTPEIQKKSTGDVPHTSVTGDSGSGKPFKIKGQPESGILRTGTFREDTDDTERNKAQREPLTRARSEEMGRIVPGLPSGWAKFLDPITGTFRYYHSPTNTVHMYPPEMAPSSAPPSTPPTHKAKPQIPAERDREPSKLKRSYSSPDITQAIQEEEKRKPTVTPTVNRENKPTCYPKAEISRLSASQIRNLNPVFGGSGPALTGLRNLGNTCYMNSILQCLCNAPHLADYFNRNCYQDDINRSNLLGHKGEVAEEFGIIMKALWTGQYRYISPKDFKITIGKINDQFAGYSQQDSQELLLFLMDGLHEDLNKADNRKRYKEENNDHLDDFKAAEHAWQKHKQLNESIIVALFQGQFKSTVQCLTCHKKSRTFEAFMYLSLPLASTSKCTLQDCLRLFSKEEKLTDNNRFYCSHCRARRDSLKKIEIWKLPPVLLVHLKRFSYDGRWKQKLQTSVDFPLENLDLSQYVIGPKNNLKKYNLFSVSNHYGGLDGGHYTAYCKNAARQRWFKFDDHEVSDISVSSVKSSAAYILFYTSLGPRVTDVAT [USP8] | -0.07 | -0.00341 | -0.0263 | -0.121 | 49.2 | 49.3 |
| MPAVLGFEGSANKIGVGVVRDGKVLANPRRTYVTPPGTGFLPGDTARHHRAVILDLLQEALTESGLTSQDIDCIAYTKGPGMGAPLVSVAVVARTVAQLWNKPLVGVNHCIGHIEMGRLITGATSPTVLYVSGGNTQVIAYSEHRYRIFGETIDIAVGNCLDRFARVLKISNDPSPGYNIEQMAKRGKKLVELPYTVKGMDVSFSGILSFIEDVAHRMLATGECTPEDLCFSLQETVFAMLVEITERAMAHCGSQEALIVGGVGCNVRLQEMMATMCQERGARLFATDERFCIDNGAMIAQAGWEMFRAGHRTPLSDSGVTQRYRTDEVEVTWRD [OSGEP] | 0.00035 | -1.39 | -0.136 | 0.0103 | 55.5 | 55.4 |
| MPAVSLPPKENALFKRILRCYEHKQYRNGLKFCKQILSNPKFAEHGETLAMKGLTLNCLGKKEEAYELVRRGLRNDLKSHVCWHVYGLLQRSDKKYDEAIKCYRNALKWDKDNLQILRDLSLLQIQMRDLEGYRETRYQLLQLRPAQRASWIGYAIAYHLLEDYEMAAKILEEFRKTQQTSPDKVDYEYSELLLYQNQVLREAGLYREALEHLCTYEKQICDKLAVEETKGELLLQLCRLEDAADVYRGLQERNPENWAYYKGLEKALKPANMLERLKIYEEAWTKYPRGLVPRRLPLNFLSGEKFKECLDKFLRMNFSKGCPPVFNTLRSLYKDKEKVAIIEELVVGYETSLKSCRLFNPNDDGKEEPPTTLLWVQYYLAQHYDKIGQPSIALEYINTAIESTPTLIELFLVKAKIYKHAGNIKEAARWMDEAQALDTADRFINSKCAKYMLKANLIKEAEEMCSKFTREGTSAVENLNEMQCMWFQTECAQAYKAMNKFGEALKKCHEIERHFIEITDDQFDFHTYCMRKITLRSYVDLLKLEDVLRQHPFYFKAARIAIEIYLKLHDNPLTDENKEHEADTANMSDKELKKLRNKQRRAQKKAQIEEEKKNAEKEKQQRNQKKKKDDDDEEIGGPKEELIPEKLAKVETPLEEAIKFLTPLKNLVKNKIETHLFAFEIYFRKEKFLLMLQSVKRAFAIDSSHPWLHECMIRLFNTAVCESKDLSDTVRTVLKQEMNRLFGATNPKNFNETFLKRNSDSLPHRLSAAKMVYYLDPSSQKRAIELATTLDESLTNRNLQTCMEVLEALYDGSLGDCKEAAEIYRANCHKLFPYALAFMPPGYEEDMKITVNGDSSAEAEELANEI [NAA15] | 0.92 | -0.18 | -0.124 | -0.262 | 53.9 | 52.5 |
| MPFPVTTQGSQQTQPPQKHYGITSPISLAAPKETDCVLTQKLIETLKPFGVFEEEEELQRRILILGKLNNLVKEWIREISESKNLPQSVIENVGGKIFTFGSYRLGVHTKGADIDALCVAPRHVDRSDFFTSFYDKLKLQEEVKDLRAVEEAFVPVIKLCFDGIEIDILFARLALQTIPEDLDLRDDSLLKNLDIRCIRSLNGCRVTDEILHLVPNIDNFRLTLRAIKLWAKRHNIYSNILGFLGGVSWAMLVARTCQLYPNAIASTLVHKFFLVFSKWEWPNPVLLKQPEECNLNLPVWDPRVNPSDRYHLMPIITPAYPQQNSTYNVSVSTRMVMVEEFKQGLAITDEILLSKAEWSKLFEAPNFFQKYKHYIVLLASAPTEKQRLEWVGLVESKIRILVGSLEKNEFITLAHVNPQSFPAPKENPDKEEFRTMWVIGLVFKKTENSENLSVDLTYDIQSFTDTVYRQAINSKMFEVDMKIAAMHVKRKQLHQLLPNHVLQKKKKHSTEGVKLTALNDSSLDLSMDSDNSMSVPSPTSATKTSPLNSSGSSQGRNSPAPAVTAASVTNIQATEVSVPQVNSSESSGGTSSESIPQTATQPAISPPPKPTVSRVVSSTRLVNPPPRSSGNAATSGNAATKIPTPIVGVKRTSSPHKEESPKKTKTEEDETSEDANCLALSGHDKTEAKEQLDTETSTTQSETIQTAASLLASQKTSSTDLSDIPALPANPIPVIKNSIKLRLNR [PAPOLA] | 1.44 | 1.67 | -0.238 | 0.109 | 51.6 | 52 |
| MPGFDYKFLEKPKRRLLCPLCGKPMREPVQVSTCGHRFCDTCLQEFLSEGVFKCPEDQLPLDYAKIYPDPELEVQVLGLPIRCIHSEEGCRWSGPLRHLQGHLNTCSFNVIPCPNRCPMKLSRRDLPAHLQHDCPKRRLKCEFCGCDFSGEAYESHEGMCPQESVYCENKCGARMMRRLLAQHATSECPKRTQPCTYCTKEFVFDTIQSHQYQCPRLPVACPNQCGVGTVAREDLPGHLKDSCNTALVLCPFKDSGCKHRCPKLAMARHVEESVKPHLAMMCALVSRQRQELQELRRELEELSVGSDGVLIWKIGSYGRRLQEAKAKPNLECFSPAFYTHKYGYKLQVSAFLNGNGSGEGTHLSLYIRVLPGAFDNLLEWPFARRVTFSLLDQSDPGLAKPQHVTETFHPDPNWKNFQKPGTWRGSLDESSLGFGYPKFISHQDIRKRNYVRDDAVFIRAAVELPRKILS [TRAF4] | 0.266 | 0.814 | 0.124 | -0.439 | 51.3 | 51.8 |
| MPGFLVRILPLLLVLLLLGPTRGLRNATQRMFEIDYSRDSFLKDGQPFRYISGSIHYSRVPRFYWKDRLLKMKMAGLNAIQTYVPWNFHEPWPGQYQFSEDHDVEYFLRLAHELGLLVILRPGPYICAEWEMGGLPAWLLEKESILLRSSDPDYLAAVDKWLGVLLPKMKPLLYQNGGPVITVQVENEYGSYFACDFDYLRFLQKRFRHHLGDDVVLFTTDGAHKTFLKCGALQGLYTTVDFGTGSNITDAFLSQRKCEPKGPLINSEFYTGWLDHWGQPHSTIKTEAVASSLYDILARGASVNLYMFIGGTNFAYWNGANSPYAAQPTSYDYDAPLSEAGDLTEKYFALRNIIQKFEKVPEGPIPPSTPKFAYGKVTLEKLKTVGAALDILCPSGPIKSLYPLTFIQVKQHYGFVLYRTTLPQDCSNPAPLSSPLNGVHDRAYVAVDGIPQGVLERNNVITLNITGKAGATLDLLVENMGRVNYGAYINDFKGLVSNLTLSSNILTDWTIFPLDTEDAVRSHLGGWGHRDSGHHDEAWAHNSSNYTLPAFYMGNFSIPSGIPDLPQDTFIQFPGWTKGQVWINGFNLGRYWPARGPQLTLFVPQHILMTSAPNTITVLELEWAPCSSDDPELCAVTFVDRPVIGSSVTYDHPSKPVEKRLMPPPPQKNKDSWLDHV [GLB1] | 0.0217 | 0.602 | -0.293 | 0.0247 | 55.6 | 57.6 |
| MPGKLLWGDIMELEAPLEESESQKKERQKSDRRKSRHHYDSDEKSETRENGVTDDLDAPKAKKSKMKEKLNGDTEEGFNRLSDEFSKSHKSRRKDLPNGDIDEYEKKSKRVSSLDTSTHKSSDNKLEETLTREQKEGAFSNFPISEETIKLLKGRGVTYLFPIQVKTFGPVYEGKDLIAQARTGTGKTFSFAIPLIERLQRNQETIKKSRSPKVLVLAPTRELANQVAKDFKDITRKLSVACFYGGTSYQSQINHIRNGIDILVGTPGRIKDHLQSGRLDLSKLRHVVLDEVDQMLDLGFAEQVEDIIHESYKTDSEDNPQTLLFSATCPQWVYKVAKKYMKSRYEQVDLVGKMTQKAATTVEHLAIQCHWSQRPAVIGDVLQVYSGSEGRAIIFCETKKNVTEMAMNPHIKQNAQCLHGDIAQSQREITLKGFREGSFKVLVATNVAARGLDIPEVDLVIQSSPPQDVESYIHRSGRTGRAGRTGICICFYQPRERGQLRYVEQKAGITFKRVGVPSTMDLVKSKSMDAIRSLASVSYAAVDFFRPSAQRLIEEKGAVDALAAALAHISGASSFEPRSLITSDKGFVTMTLESLEEIQDVSCAWKELNRKLSSNAVSQITRMCLLKGNMGVCFDVPTTESERLQAEWHDSDWILSVPAKLPEIEEYYDGNTSSNSRQRSGWSSGRSGRSGRSGGRSGGRSGRQSRQGSRSGSRQDGRRRSGNRNRSRSGGHKRSFD [DDX50] | 1.27 | 2.08 | 0.879 | -1.4 | – | 50.4 |
| MPGKLRSDAGLESDTAMKKGETLRKQTEEKEKKEKPKSDKTEEIAEEEETVFPKAKQVKKKAEPSEVDMNSPKSKKAKKKEEPSQNDISPKTKSLRKKKEPIEKKVVSSKTKKVTKNEEPSEEEIDAPKPKKMKKEKEMNGETREKSPKLKNGFPHPEPDCNPSEAASEESNSEIEQEIPVEQKEGAFSNFPISEETIKLLKGRGVTFLFPIQAKTFHHVYSGKDLIAQARTGTGKTFSFAIPLIEKLHGELQDRKRGRAPQVLVLAPTRELANQVSKDFSDITKKLSVACFYGGTPYGGQFERMRNGIDILVGTPGRIKDHIQNGKLDLTKLKHVVLDEVDQMLDMGFADQVEEILSVAYKKDSEDNPQTLLFSATCPHWVFNVAKKYMKSTYEQVDLIGKKTQKTAITVEHLAIKCHWTQRAAVIGDVIRVYSGHQGRTIIFCETKKEAQELSQNSAIKQDAQSLHGDIPQKQREITLKGFRNGSFGVLVATNVAARGLDIPEVDLVIQSSPPKDVESYIHRSGRTGRAGRTGVCICFYQHKEEYQLVQVEQKAGIKFKRIGVPSATEIIKASSKDAIRLLDSVPPTAISHFKQSAEKLIEEKGAVEALAAALAHISGATSVDQRSLINSNVGFVTMILQCSIEMPNISYAWKELKEQLGEEIDSKVKGMVFLKGKLGVCFDVPTASVTEIQEKWHDSRRWQLSVATEQPELEGPREGYGGFRGQREGSRGFRGQRDGNRRFRGQREGSRGPRGQRSGGGNKSNRSQNKGQKRSFSKAFGQ [DDX21] | 5.09 | 6.63 | 0.826 | -1.67 | 49.3 | 50.8 |
